# Measurements as given in patent US20090104177A1, “PEPTIDES FOR INHIBITING THE INTERACTION OF PROTEIN KINASE A AND PROTEIN KINASE A ANCHOR PROTEINS” (FORSCHUNGSVERBUND BERLIN E.V., priority 2004, published 2009).
# No end group written: not given here.
# How the values were obtained:
# [1] = biological target: T1, regulatory RIIβ subunits of PKA (Rattus norvegicus, UniProt P12369); test: RII overlay of membrane-bound (SPOT) peptides, radiolabelled RIIβ as probe, densitometry; type: binding; conditions: in words
# T1 construct: Prof; Dr. Friedrich W. Herberg, University of Kassel, Germany (obtained from an academic laboratory, not a vendor)
# Source text: (§1) Peptide libraries were synthesized by means of automatic SPOT synthesis on Whatman 50 cellulose membranes according to standard protocols using Fmoc chemistry and AutoSpot Robot ATE 222 (Intavis Bioanalytical Instruments AG, Cologne). The protective groups of the amino acid side chains were removed using a mixture of trifluoroacetic acid (TFA) in dichloromethane (DCM) (Frank, 1992; Kramer and Schneider-Mergener, 1998). For control, spots (about 50 nmol of peptide per spot) were cut from the cellulose membrane, removed from the membrane by treatment with 0.05 M NaOH, and analyzed using HPLC and MALDI-TOF mass spectrometry.
# (§2) • 1. Regulatory RIIα (human) and RIIβ (rat) subunits of PKA, obtained from Prof. Dr. Friedrich W. Herberg, University of Kassel, Germany. • 2. Catalytic subunits of PKA, Promega, Mannheim, Germany, Order No. V5161 • 3. [γ-^32P]ATP, 5000 Ci/mmol, Amersham Biosciences, Brunswick, Germany, Order No. AA0018 • 4. Sephadex G 50, medium Pharmacia, Order No. 17-0043-01 • 5. Phosphate-buffered saline (PBS)
# (§3) The ATP concentration was adjusted to 10 μM by addition of non-radioactive ATP (addition of 5 μl of a 1 mM solution). The batch was incubated on ice for another 50 min.
# (§4) The reaction was quenched by adding dextran blue and removing free nucleotides. The free ATP was removed on a Sephadex G50 column.
# (§5) Non-incorporated nucleotides were separated from the RII subunits by fractionation on Sephadex G 50 columns. • 1. Swelling of the Sephadex G 50 material: 20 g thereof was allowed to swell in 400 ml of PBS at room temperature overnight. Non-settled material was subsequently removed with a Pasteur pipette. The swollen material was aliquoted in 50 ml Falcon tubes and stored at 4° C. For preservation, sodium azide was added to make a final concentration of 0.01%. • 2. The material was poured into a 10 ml sterile disposable pipette sealed with a glass sphere. To settle the column bed, 50 ml of PBS containing 1 mg/ml BSA (bovine serum albumin) was allowed to pass.
# (§6) Until used, the column was sealed with parafilm at the top thereof. • 3. The labelled RII subunits (500 μl), together with dextran blue (70 μl of a 20 mg/ml solution), were applied on the column (overall volume=570 μl). • 4. The sample was allowed to migrate into the matrix, followed by filling up with PBS. • 5. A short time before the dextran blue was eluted, collection of fractions was begun (2 fractions of 1.5 ml each, the other fractions 1 ml each). • 6. To determine the incorporation of ^32P, 1% (5.7 μl) of sample upstream of the column (corresponding to 1% of the radioactivity employed) and 3 μl of each fraction were used. • 7. The fractions of the first peak including the probe were combined. The incorporation rate in % was calculated and the specific activity (cpm/μg of protein) was determined.
# (§7) • 1. The proteins (40 μg) were separated by means of SDS-PAGE and transferred on a PVDF membrane (PVDF: polyvinylidene fluoride) using a semi-dry electroblotting procedure. The membrane-associated proteins were stained with Ponceau S in order to identify the marker proteins on the membrane. Destaining was effected using TBS. • 2. The membrane was incubated in Blotto/BSA at 4° C. for 16 hours:
# (§8) • 3. Blotto/BSA was replaced with fresh one and ^32P-labelled RII subunits were added (10^5 cpm/ml). This was incubated for 4-6 h at room temperature. • 4. The membrane was washed for 4×15 min in Blotto/BSA and for 2×10 min in 10 mM potassium phosphate buffer, pH 7.4, 0.15 M NaCl. • 5. RII-binding proteins were detected by exposition on a phosphoimager plate.
# (§9) Identification of AKAP18δ-derived peptides inhibiting the interaction of AKAP proteins with the regulatory RIIα and RIIβ subunits of PKA. A: Peptides derived from the PKA binding domain of AKAP18δ were synthesized on two membranes. The membranes were incubated with radiolabelled regulatory RIIα (upper row) or RIIβ subunits (row below) of the PKA (RII overlay experiment). […]
# [2] = biological target: T2, regulatory RIIα subunits of PKA (Homo sapiens, UniProt P13861); test: RII overlay of membrane-bound (SPOT) peptides, radiolabelled RIIα as probe, densitometry; type: binding; conditions: for binding to RIIα subunits in RII overlay: human RIIα as probe, in words
# T2 construct: Prof; Dr. Friedrich W. Herberg, University of Kassel, Germany (obtained from an academic laboratory, not a vendor)
# Source text: as §1, §2, §3, §4, §5, §6, §7, §8, §9
# RII subunits of the PKAs = test: Summary statement on RII binding of AKAP18δ-derived negative control peptides; conditions: negative controls; in words
# Source text: They have in common that binding is no longer present due to structural differences (1, 2) or differences in charge (3, 4).
# RIIβ subunits from rats = RIIβ subunits from rats (Rattus norvegicus, UniProt P12369); test: Surface plasmon resonance measurement of peptide binding to RIIβ
# human RIIα subunits = human RIIα subunits (Homo sapiens, UniProt P13861); test: Surface plasmon resonance measurement of peptide binding to RIIα
# [3] = biological target: T3, regulatory RIIβ subunit of PKA (rat) (rat, UniProt P12369 1-416, 32P-labelled with the catalytic subunit of PKA when used as probe in the RII overlay experiments); test: surface plasmon resonance
# T3 construct: Radiolabelled probe in RII overlays; format in the surface plasmon resonance measurements is not described; also called RIIβ subunit of PKA from rats
# [4] = biological target: T4, regulatory RIIα subunit of PKA (human) (human, UniProt P13861 1-404, 32P-labelled with the catalytic subunit of PKA when used as probe in the RII overlay experiments); test: RII overlay: SPOT peptide on membrane, 32P-labelled RIIα probe, phosphoimager, densitometry as % of AKAP18δ-wt
# T4 construct: Radiolabelled probe in RII overlays; format in the surface plasmon resonance measurements is not described; also called human RIIα
# [5] = biological target: T3, regulatory RIIβ subunit of PKA (rat); test: RII overlay: SPOT peptide on membrane, 32P-labelled RIIβ probe, phosphoimager, densitometry as % of AKAP18δ-wt
# [6] = biological target: T4, regulatory RIIα subunit of PKA (human); test: RII overlay on SPOT membrane with radiolabelled RIIα
# [7] = biological target: T3, regulatory RIIβ subunit of PKA (rat); test: RII overlay on SPOT membrane with radiolabelled RIIβ
# T1 sequence (P12369 whole entry): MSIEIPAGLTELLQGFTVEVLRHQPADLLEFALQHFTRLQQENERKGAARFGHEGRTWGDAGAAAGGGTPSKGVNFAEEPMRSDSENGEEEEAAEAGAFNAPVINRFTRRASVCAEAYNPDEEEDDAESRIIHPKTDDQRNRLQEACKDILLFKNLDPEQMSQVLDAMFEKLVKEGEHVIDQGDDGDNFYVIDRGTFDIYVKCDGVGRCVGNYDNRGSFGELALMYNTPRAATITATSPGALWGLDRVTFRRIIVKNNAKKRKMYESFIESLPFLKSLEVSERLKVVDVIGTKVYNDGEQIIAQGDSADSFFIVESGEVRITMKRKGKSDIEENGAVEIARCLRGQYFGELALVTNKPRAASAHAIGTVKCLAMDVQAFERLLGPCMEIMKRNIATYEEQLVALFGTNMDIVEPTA
# RIIβ subunits from rats, sequence (P12369 whole entry): as above
# T3 sequence (P12369 whole entry): as above
# T2 sequence (P13861 whole entry): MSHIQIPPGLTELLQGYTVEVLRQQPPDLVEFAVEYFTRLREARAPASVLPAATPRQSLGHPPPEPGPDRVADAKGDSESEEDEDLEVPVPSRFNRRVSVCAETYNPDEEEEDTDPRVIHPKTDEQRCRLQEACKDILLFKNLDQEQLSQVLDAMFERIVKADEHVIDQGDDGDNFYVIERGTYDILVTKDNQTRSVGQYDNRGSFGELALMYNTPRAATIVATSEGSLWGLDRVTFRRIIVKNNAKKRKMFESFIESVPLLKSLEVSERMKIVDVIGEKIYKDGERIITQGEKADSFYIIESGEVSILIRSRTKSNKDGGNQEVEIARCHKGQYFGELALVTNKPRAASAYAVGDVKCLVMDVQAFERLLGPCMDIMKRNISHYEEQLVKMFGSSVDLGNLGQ
# human RIIα subunits, sequence (P13861 whole entry): as above
# T4 sequence (P13861 whole entry): as above
Molecule,binding result [4],binding result [5],further results
ANDARLVRLNKRLVENAVLKAVQQY [10/11],–,–,binding to RIIβ subunits in RII overlay [1]: no RIIβ; binding to RIIα subunits in RII overlay [2]: bind RIIα
ANDARLVRLPKRLVENAVLKAVQQY [10/12],–,–,binding to RIIβ subunits in RII overlay [1]: no RIIβ; binding to RIIα subunits in RII overlay [2]: bind RIIα
ANDARLVRLSKRLRENAVLKAVQQY [A18δRIIα Hs1],–,–,binding to RIIα subunits in RII overlay [2]: binding to RIIα
ANDARLVRLSKRLVENAVLKAVQQY [peptide No. 7],–,–,"difference in binding of the two PKA subunits (RIIα vs RIIβ) ([2]; RII overlay on two membranes, quantitative evaluation (FIG. 3)): marked difference"
ANDARLVRLSKRLVENAVLKFVQQY [21/4],–,–,binding to RIIβ subunits in RII overlay [1]: vice versa; binding to RIIβ subunits in RII overlay ([1]; listed as A18δRIIβRn1): binding to RIIβ; binding to RIIβ subunits in RII overlay ([1]; listed as A18δRIIβRnl): selectively binds RIIβ subunits; binding to RIIα subunits in RII overlay [2]: vice versa
ANDARLVRLSKRLYENAVLKAVQQY [A18δRIIα Hs2],–,–,binding to RIIα subunits in RII overlay [2]: binding to RIIα
PEDAELVRLDKRLPENAPLKAVQQY (also: phosphorylated; listed as Homo sapiens) [AKAP18δ-phos],–,–,binding of RII subunits of the PKAs (RII subunits of the PKAs): absent binding
PEDAELVRLSKRDVENAVLKAVQQY [AKAP18δ-L308D],–,–,binding to RIIβ subunits in RII overlay [1]: weaker; RIIβ binding KD (RIIβ subunits from rats): no binding; binding to RIIα subunits in RII overlay [2]: weaker; binding of RII subunits of the PKAs (RII subunits of the PKAs): absent binding; RIIα binding KD (human RIIα subunits): no binding
PEDAELVRLSKRLPENAPLKAVQQY [AKAP18δ-PP],–,–,RIIβ binding KD (RIIβ subunits from rats): no binding; binding of RII subunits of the PKAs (RII subunits of the PKAs): absent binding; RIIα binding KD (human RIIα subunits): no binding
PEDAELVRLSKRLPENAVLKAVQQY [AKAP18δ-P],–,–,RIIβ binding KD (RIIβ subunits from rats): no binding; binding of RII subunits of the PKAs (RII subunits of the PKAs): absent binding; RIIα binding KD (human RIIα subunits): no binding
PEDAELVRLSKRLVENAVLKAVQQY [AKAP18δ-wt],–,–,Kd (RIIβ subunits from rats): 1 to 6 nM; Kd (human RIIα subunits): 0.4 to 1.5 nM
PEDAELVRLSKRLVENAVEKAVQQY (also called AKAP18delta-L314E; No. W) [AKAP18δ-L314E],–,–,Kd [3]: 22 nM
PEDAELVRLSKRLVENAVLQAVQQY (AKAP18δ-derived; also called No. N) [Peptide 14],binds,binds,–
PEDAELVRLSKRLVENAVKNGNQQY (AKAP18δ-derived; also called No. R) [Peptide 18],binds,binds,–
PEDAELVRLSKRLVENAVKNGAQDY (AKAP18δ-derived; also called No. S) [Peptide 19],binds,binds,–
PEDAELVRLSKRLVENAVLNGNQQY (AKAP18δ-derived; also called No. Q) [Peptide 17],binds,binds,–

Molecule,binding result [4],binding result [5],further results
PEDAELVRLSKRLVENAVLNGVQQY (AKAP18δ-derived; also called No. O) [Peptide 15],binds,binds,–
PEDAELVRLSKRLVENAVLNGQQQY (AKAP18δ-derived; also called No. P) [Peptide 16],binds,binds,–
"ANDARLVRLSKRLVENAVLKAVQQY (also called peptide 7; No. G) [peptide No. 7 (AKAP18δ-derived, FIG. 3)]",binds,binds,–
ARDAQLVRLSKRLVENAVLKAVQQY (AKAP18δ-derived; also called No. F) [Peptide 6],binds,binds,–
ANDAKTERLSKRLVENAVLKAVQQY (AKAP18δ-derived; also called No. J) [Peptide 10],binds,binds,–
ASDAKLVRLSKRLVENAVLKAVQQY (AKAP18δ-derived; also called No. D) [Peptide 4],binds,binds,–
"ANDARLVRLNKRLVENAVLKAVQQY (Member of the substitution library of peptide 7 (row 10, peptide 11); also called peptide 10/11; No. EE) [A18δRIIαRn2 (10/11)]",–,–,binding result [6]: binds; binding result [7]: no binding
"ANDARLVRLSKRLYENAVLKAVQQY (Member of the substitution library of peptide 7 (row 14, peptide 19); also called No. CC) [A18δRIIαHs2 (14/19)]",–,–,binding result [6]: binds
ASDAQLVRLSKRLVENAVLKAVQQY (AKAP18δ-derived; also called No. C) [Peptide 3],binds,binds,–
ASDAKTVRLSKRLVENAVLKAVQQY (AKAP18δ-derived; also called No. I) [Peptide 9],binds,binds,–
ARDAKLVRLSKRLVENAVLKAVQQY (AKAP18δ-derived; also called No. E) [Peptide 5],binds,binds,–
ASDARLVRLSKRLVENAVLKAVQQY (AKAP18δ-derived; also called No. H) [Peptide 8],binds,binds,–
ANDAKTERLSQRLVENAVLKAVQQY (AKAP18δ-derived; also called No. K) [Peptide 11],binds,binds,–
"ANDARLVRLSKRLRENAVLKAVQQY (Member of the substitution library of peptide 7 (row 14, peptide 14); also called No. BB) [A18δRIIαHs1 (14/14)]",–,–,binding result [6]: binds
ANDAKTQRLSQRLVENAVLKAVQQY (AKAP18δ-derived; also called No. L) [Peptide 12],binds,binds,–
